Earlier results on three substances are cited in US20070184095A1, “OSMIUM COMPOUNDS FOR THE TREATMENT OF PSORIASIS” (priority 2006, published 2007).

Regarding “infliximab: chimeric (mouse-human) IgG1 monoclonal antibody, which binds to and inactivates TNF-α”, the reported adverse events result (small percentage of treated patients) is “pneumonia, tuberculosis, lymphoma, drug-induced lupus and hepatotoxicity”.
For the substance Adalimumab, where the note is “human, in vivo”, the “increase in incidence of serious infections” value is listed as “two-fold” and the most notable complication result is reported as “reactivation of tuberculosis”.
“efalizumab: humanized monoclonal antibody against the CD11a subunit of LFA-1”: under “human, in vivo”, the “patients who developed hemolytic anaemia” value was “four”, the “patients with immune-mediated thrombocytopenia (platelet counts at or below 52,000 cells/microliter)” value is reported as 0.3% and the “subjects developing antiefalizumab antibodies” value was “approximately 5%”. Further, the “overall incidence of hospitalization for infections” value (placebo 1.2) is recorded as 1.6 per 100 patient-years.
